Experimental data taken from patent publication US20030215838A1.

Key:
[1] = biological target: human zcytor17 and OSMRbeta co-expressed on transfected cells (human); assay: cell-based or functional assay
[2] = biological target: human zcytor17, OSMRbeta and WSX-1 co-expressed on transfected cells (human); assay: cell-based or functional assay
[3] = biological target: human OSMRbeta, full length, on transfected cells (human); assay: flow cytometry; no ligand (0.0 µg/mL, background) on BHK cells with OSMRbeta alone, SA-PE
[4] = biological target: human zcytor17 receptor, full length, on transfected cells (human); assay: flow cytometry; no ligand (0.0 µg/mL, background) on BHK cells with zcytor17 alone, SA-PE
[5] = biological target: human zcytor17 receptor, full length, on transfected cells (human); assay: flow cytometry; no ligand (0.0 ng/mL, background) on BAF3 cells with zcytor17 alone, SA-PE
[6] = biological target: human OSMRbeta, full length, on transfected cells (human); assay: flow cytometry; biotinylated zcytor17L at 2.0 µg/mL on BHK cells with OSMRbeta alone, SA-PE
[7] = biological target: human zcytor17 receptor, full length, on transfected cells (human); assay: flow cytometry; biotinylated zcytor17L at 2.0 µg/mL on BHK cells with zcytor17 alone, SA-PE
[8] = biological target: human OSMRbeta, full length, on transfected cells (human); assay: flow cytometry; no ligand (0.00 µg/mL, background) on BAF3 cells with OSMRbeta alone, SA-PE
[9] = biological target: human zcytor17 receptor, full length, on transfected cells (human); assay: flow cytometry; biotinylated zcytor17L at 1.0 ng/mL on BAF3 cells with zcytor17 alone, SA-PE
[10] = biological target: human zcytor17 receptor, full length, on transfected cells (human); assay: flow cytometry; biotinylated zcytor17L at 0.001 µg/mL on BHK cells with zcytor17 alone, SA-PE
[11] = biological target: human zcytor17 receptor, full length, on transfected cells (human); assay: flow cytometry; biotinylated zcytor17L at 0.010 µg/mL on BHK cells with zcytor17 alone, SA-PE
[12] = biological target: human OSMRbeta, full length, on transfected cells (human); assay: flow cytometry; biotinylated zcytor17L at 0.04 µg/mL on BAF3 cells with OSMRbeta alone, SA-PE
[13] = biological target: human zcytor17 receptor, full length, on transfected cells (human); assay: flow cytometry; biotinylated zcytor17L at 0.100 µg/mL on BHK cells with zcytor17 alone, SA-PE
[14] = biological target: human OSMRbeta, full length, on transfected cells (human); assay: flow cytometry; biotinylated zcytor17L at 0.12 µg/mL on BAF3 cells with OSMRbeta alone, SA-PE
[15] = biological target: human OSMRbeta, full length, on transfected cells (human); assay: flow cytometry; biotinylated zcytor17L at 0.37 µg/mL on BAF3 cells with OSMRbeta alone, SA-PE
[16] = biological target: human OSMRbeta, full length, on transfected cells (human); assay: flow cytometry; biotinylated zcytor17L at 1.11 µg/mL on BAF3 cells with OSMRbeta alone, SA-PE
[17] = biological target: human zcytor17 receptor, full length, on transfected cells (human); assay: flow cytometry; biotinylated zcytor17L at 10.0 ng/mL on BAF3 cells with zcytor17 alone, SA-PE
[18] = biological target: human OSMRbeta, full length, on transfected cells (human); assay: flow cytometry; biotinylated zcytor17L at 10.0 µg/mL on BAF3 cells with OSMRbeta alone, SA-PE
[19] = biological target: human OSMRbeta, full length, on transfected cells (human); assay: flow cytometry; biotinylated zcytor17L at 3.33 µg/mL on BAF3 cells with OSMRbeta alone, SA-PE
[20] = biological target: human zcytor17 receptor, full length, on transfected cells (human); assay: flow cytometry; biotinylated zcytor17L at 0.0001 µg/mL on BHK cells with zcytor17 alone, SA-PE
[21] = biological target: human zcytor17 receptor, full length, on transfected cells (human); assay: flow cytometry; biotinylated zcytor17L at 100.0 ng/mL on BAF3 cells with zcytor17 alone, SA-PE
[22] = biological target: human zcytor17 and OSMRbeta co-expressed on transfected cells (human); assay: flow cytometry; no ligand (0.0 µg/mL, background) on BHK cells with zcytor17 + OSMRbeta, SA-PE
[23] = biological target: human zcytor17 receptor, full length, on transfected cells (human); assay: flow cytometry; biotinylated zcytor17L at 0.00001 µg/mL on BHK cells with zcytor17 alone, SA-PE
[24] = biological target: human zcytor17 receptor, full length, on transfected cells (human); assay: flow cytometry; biotinylated zcytor17L at 0.000001 µg/mL on BHK cells with zcytor17 alone, SA-PE
[25] = biological target: human zcytor17 and OSMRbeta co-expressed on transfected cells (human); assay: flow cytometry; biotinylated zcytor17L at 2.0 µg/mL on BHK cells with zcytor17 + OSMRbeta, SA-PE
[26] = biological target: human zcytor17 and OSMRbeta co-expressed on transfected cells (human); assay: flow cytometry; no ligand (0.00 µg/mL, background) on BAF3 cells with zcytor17 + OSMRbeta, SA-PE
[27] = biological target: human zcytor17 and OSMRbeta co-expressed on transfected cells (human); assay: flow cytometry; biotinylated zcytor17L at 0.001 µg/mL on BHK cells with zcytor17 + OSMRbeta, SA-PE
[28] = biological target: human zcytor17 and OSMRbeta co-expressed on transfected cells (human); assay: flow cytometry; biotinylated zcytor17L at 0.010 µg/mL on BHK cells with zcytor17 + OSMRbeta, SA-PE
[29] = biological target: human zcytor17 and OSMRbeta co-expressed on transfected cells (human); assay: flow cytometry; biotinylated zcytor17L at 0.04 µg/mL on BAF3 cells with zcytor17 + OSMRbeta, SA-PE
[30] = biological target: human zcytor17 and OSMRbeta co-expressed on transfected cells (human); assay: flow cytometry; biotinylated zcytor17L at 0.100 µg/mL on BHK cells with zcytor17 + OSMRbeta, SA-PE
[31] = biological target: human zcytor17 and OSMRbeta co-expressed on transfected cells (human); assay: flow cytometry; biotinylated zcytor17L at 0.12 µg/mL on BAF3 cells with zcytor17 + OSMRbeta, SA-PE
[32] = biological target: human zcytor17 and OSMRbeta co-expressed on transfected cells (human); assay: flow cytometry; biotinylated zcytor17L at 0.37 µg/mL on BAF3 cells with zcytor17 + OSMRbeta, SA-PE
[33] = biological target: human zcytor17 and OSMRbeta co-expressed on transfected cells (human); assay: flow cytometry; biotinylated zcytor17L at 1.11 µg/mL on BAF3 cells with zcytor17 + OSMRbeta, SA-PE
[34] = biological target: human zcytor17 and OSMRbeta co-expressed on transfected cells (human); assay: flow cytometry; biotinylated zcytor17L at 10.0 µg/mL on BAF3 cells with zcytor17 + OSMRbeta, SA-PE
[35] = biological target: human zcytor17 and OSMRbeta co-expressed on transfected cells (human); assay: flow cytometry; biotinylated zcytor17L at 3.33 µg/mL on BAF3 cells with zcytor17 + OSMRbeta, SA-PE
[36] = biological target: human zcytor17 and OSMRbeta co-expressed on transfected cells (human); assay: flow cytometry; biotinylated zcytor17L at 0.0001 µg/mL on BHK cells with zcytor17 + OSMRbeta, SA-PE
[37] = biological target: human zcytor17 and OSMRbeta co-expressed on transfected cells (human); assay: flow cytometry; biotinylated zcytor17L at 0.00001 µg/mL on BHK cells with zcytor17 + OSMRbeta, SA-PE
[38] = biological target: human zcytor17 and OSMRbeta co-expressed on transfected cells (human); assay: flow cytometry; biotinylated zcytor17L at 0.000001 µg/mL on BHK cells with zcytor17 + OSMRbeta, SA-PE

human zcytor17lig (untagged, in conditioned media) (ligand)
proliferation of BaF3/zcytor17/OSMRbeta cells, Alamar Blue (activated CCRF-CEM and CCRF-HSB2 conditioned media) (fold over background) [1]: 10 | proliferation of BaF3/zcytor17/OSMRbeta cells, Alamar Blue (activated CD3+ selected human cell conditioned media) (fold over background) [1]: 15 | proliferation of BaF3/zcytor17/WSX-1/OSMRbeta cells, Alamar Blue (activated CCRF-CEM and CCRF-HSB2 conditioned media) (fold over background) [2]: 10 | proliferation of BaF3/zcytor17/WSX-1/OSMRbeta cells, Alamar Blue (activated CD3+ selected human cell conditioned media) (fold over background) [2]: 15

B1: biotinylated human zcytor17 ligand (ligand)
chain: LPVRLLRPSDDVQKIVEELQSLSKMLLKDVEEEKGVLVSQNYTLPCLSPDAQPPNNIHSPAIRAYLKTIRQLDNKSVIDEIIEHLDKLIFQDAPETNISVPTDTHECKRFILTISQQFSECMDLALKSLTSGAQQATT
modifications: biotin
mean fluorescent intensity (MFI) [3]: 0 | mean fluorescent intensity (MFI) [4]: 15 | mean fluorescent intensity (MFI) [5]: 7 | mean fluorescent intensity (MFI) [6]: 13 | mean fluorescent intensity (MFI) [7]: 3030 | mean fluorescent intensity (MFI) [8]: 11 | mean fluorescent intensity (MFI) [9]: 17 | mean fluorescent intensity (MFI) [10]: 39 | mean fluorescent intensity (MFI) [11]: 244 | mean fluorescent intensity (MFI) [12]: 5 | mean fluorescent intensity (MFI) [13]: 1600 | mean fluorescent intensity (MFI) [14]: 5 | mean fluorescent intensity (MFI) [15]: 5 | mean fluorescent intensity (MFI) [16]: 5 | mean fluorescent intensity (MFI) [17]: 72 | mean fluorescent intensity (MFI) [18]: 6 | mean fluorescent intensity (MFI) [19]: 5 | mean fluorescent intensity (MFI) [20]: 16 | mean fluorescent intensity (MFI) [21]: 347 | mean fluorescent intensity (MFI) [22]: 13 | mean fluorescent intensity (MFI) [23]: 15 | mean fluorescent intensity (MFI) [24]: 14 | mean fluorescent intensity (MFI) [25]: 3780 | mean fluorescent intensity (MFI) [26]: 7 | mean fluorescent intensity (MFI) [27]: 53 | mean fluorescent intensity (MFI) [28]: 328 | mean fluorescent intensity (MFI) [29]: 247 | mean fluorescent intensity (MFI) [30]: 2130 | mean fluorescent intensity (MFI) [31]: 364 | mean fluorescent intensity (MFI) [32]: 441 | mean fluorescent intensity (MFI) [33]: 489 | mean fluorescent intensity (MFI) [34]: 531 | mean fluorescent intensity (MFI) [35]: 508 | mean fluorescent intensity (MFI) [36]: 17 | mean fluorescent intensity (MFI) [37]: 15 | mean fluorescent intensity (MFI) [38]: 14
